B1: Smad3/Smad1/Smad3 chimera (other)
chain: MSSILPFTPPIVKRLLGWKKGEQNGQEEKWCEKAVKSLVKKLKKTGQLDELEKAITTQNVNTKCITIPRSLDGRLQVSHRKGLPHVIYCRLWRWPDLHSHHELRAMELCEFAFNMKKDEVCVNPYHYQRVETPVLPPVLVPRHTEIPAEFPPLDDYSHSIPENTNFPAGIEPQSNIPETPPPGYLSEDGETSDHQMNHSMDAGSPNLSPNPMSPAHNNLDLQPVTYCEPAFWCSISYYELNNRVGEAFHASSTSVLVDGFTDPSNNKNRFCLGLLSNVVNRNAAVELTRRHIGRGVRLYYIGGEVFAECLSDSAIFVQSPNCNQRYGWHPATVCKIPPGCNLKIFNNQEFAALLAQSVNQGFEAVYQLTRMCTIRMSFVKGWGAEYRRQTVTSTPCWIELHLNGPLQWLDKVLTQMGSPSIRCSSV
B2: Flag-tagged Smad3 d2 (domain or fragment)
chain: MSSILPFTPPIVKRLLGWKKGEQNGQEEKWCEKAVKSLVKKLKKTGQLDELEKAITTQNVNTKCITIPRSLDGRLQVSHRKGLPHVIYCRLWRWPDLHSHHELRAMELCEFAFNMKKDEVCVNPYHYQRVETPVLPPVLVPRHTEIPAEFPPLDDYSHSIPENTNFPAGIEPQSNIPETPPPGYLSEDGETSDHQMNHSMDAGSPNLSPNPMSPAHNNLDLQPVTYCEPAFWCSISYYELNQRVGETFHASQPSMTVDGFTDPSNSERFCLGLLSNVNRNAAVELTRRHIGRGVRLYYIGGEVFAECLSDSAIFVQSPNCNQRYGWHPATVCKIPPGCNLKIFNNQEFAALLAQSVNQGFE
B3: Flag-tagged Smad3 d6 (domain or fragment)
chain: MSSILPFTPPIVKRLLGWKKGEQNGQEEKWCEKAVKSLVKKLKKTGQLDELEKAITTQNVNTKCITIPRSLDGRLQVSHRKGLPHVIYCRLWRWPDLHSHHELRAMELCEFAFNMKKDEVCVNPYHYQRVETPVLPPVLVPRHTEIPAEFPPLDDYSHSIPENTNFPAGIEPQSNIPETPPPGYLSEDGETSDHQMNHSMDAGSPNLSPNPMSPAHNNLDLQPVTYCEPAFWCSISYYELNQRVGETFHASQPSMTVDGFTDPSNSERFCLGLLSNVNRNAAVELTRRHIGRGVRLYYIGGEVFAECLSDSAIFVQSPNCNQRYGWHPA
B4: Flag-tagged Smad3 d4 (domain or fragment)
chain: MSSILPFTPPIVKRLLGWKKGEQNGQEEKWCEKAVKSLVKKLKKTGQLDELEKAITTQNVNTKCITIPRSLDGRLQVSHRKGLPHVIYCRLWRWPDLHSHHELRAMELCEFAFNMKKDEVCVNPYHYQRVETPVLPPVLVPRHTEIPAEFPPLDDYSHSIPENTNFPAGIEPQSNIPETPPPGYLSEDGETSDHQMNHSMDAGSPNLSPNPMSPAHNNLDLQPVTYCEPAFWCSISYYELNQRVGETFHASQPSMTVDGFTDPSNSERFCLGLLSNVNRNAAVELTRRHIGRGVRLYYIG

Biological target: T1, GST-HEF1 (human, UniProt Q14511 1-834)
T1 sequence: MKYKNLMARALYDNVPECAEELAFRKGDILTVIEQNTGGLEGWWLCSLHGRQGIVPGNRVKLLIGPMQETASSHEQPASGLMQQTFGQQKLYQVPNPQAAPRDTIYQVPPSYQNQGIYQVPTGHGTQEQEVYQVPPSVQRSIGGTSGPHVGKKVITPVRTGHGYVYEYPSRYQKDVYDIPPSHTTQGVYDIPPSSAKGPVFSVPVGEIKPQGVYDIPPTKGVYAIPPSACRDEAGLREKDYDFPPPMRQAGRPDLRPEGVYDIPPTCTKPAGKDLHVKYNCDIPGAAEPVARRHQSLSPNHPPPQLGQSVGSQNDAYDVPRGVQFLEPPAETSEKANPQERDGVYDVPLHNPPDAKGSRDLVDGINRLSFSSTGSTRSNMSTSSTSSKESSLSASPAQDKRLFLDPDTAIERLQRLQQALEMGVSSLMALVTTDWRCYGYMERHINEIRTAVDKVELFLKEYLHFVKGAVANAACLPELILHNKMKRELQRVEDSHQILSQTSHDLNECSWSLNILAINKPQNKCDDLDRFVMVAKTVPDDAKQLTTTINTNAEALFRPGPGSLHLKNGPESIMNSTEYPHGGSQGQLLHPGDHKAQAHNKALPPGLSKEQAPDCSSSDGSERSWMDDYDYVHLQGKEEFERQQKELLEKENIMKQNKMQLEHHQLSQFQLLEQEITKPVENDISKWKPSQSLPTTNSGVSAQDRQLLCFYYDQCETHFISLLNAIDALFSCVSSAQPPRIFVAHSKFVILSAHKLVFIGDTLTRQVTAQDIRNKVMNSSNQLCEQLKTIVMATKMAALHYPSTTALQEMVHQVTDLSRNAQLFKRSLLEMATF
Assay: pull-down

| Binder | percent of input protein bound (densitometry) [%] |
| --- | --- |
| B1 | 24 |
| B2 | 21 |
| B3 | 23 |
| B4 | 13 |

Biological target: GST-APC10 (UniProt Q9UM13 1-185)
Assay: pull-down

Chain of GST-APC10 (Q9UM13 whole entry): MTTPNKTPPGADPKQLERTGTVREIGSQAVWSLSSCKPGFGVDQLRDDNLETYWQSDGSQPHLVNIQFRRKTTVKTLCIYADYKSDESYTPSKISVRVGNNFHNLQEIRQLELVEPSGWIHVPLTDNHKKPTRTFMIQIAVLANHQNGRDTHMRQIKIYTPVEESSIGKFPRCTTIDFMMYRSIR

| Binder | percent of input protein bound (densitometry) [%] |
| --- | --- |
| B1 | 20 |
| B2 | 95 |
| B3 | 34 |
| B4 | 17 |

— article PMC420458 (BMC Cell Biology, 2004)
